Measurements reported in publication doi:10.1101/2023.11.02.565302.

Molecular target: ligand-binding domain (LBD) of rat GluK1 (rat)
Experiment: crystal structure

stoichiometry N: 2
Substance: ligand-binding domain (LBD) of rat GluK1 (domain or fragment)
